{"source": "patent US20170008933A1", "about": "(GlaxoSmithKline, published 2017)", "binders": {"B1": {"name": "wild-type v2 fHbp (strain 2996) (other)", "chain": "VAADIGAGLADALTAPLDHKDKSLQSLTLDQSVRKNEKLKLAAQGAEKTYGNGDSLNTGKLKNDKVSRFDFIRQIEVDGQLITLESGEFQIYKQDHSAVVALQIEKINNPDKIDSLINQRSFLVSGLGGEHTAFNQLPDGKAEYHGKAFSSDDAGGKLTYTIDFAAKQGHGKIEHLKTPEQNVELAAAELKADEKSHAVILGDTRYGSEEKGTYHLALFGDRAQEIAGSATVKIGEKVHEIGIAGKQ", "notes": "Recombinant purified protein; The exact construct used in SPR is not spelled out; also called v2 w.t"}, "B2": {"name": "v2 fHbp combined mutant #2 + #12 (other)", "chain": "B1 chain with S32V, L123R, V124I, S125G, G126D, L127I, G128A", "notes": "also called mutant #23; S32V + L123-G128 RIGDIA"}, "B3": {"name": "v2 fHbp mutant #4 (L149R) (other)", "chain": "B1 chain with L123R", "notes": "also called L123R"}, "B4": {"name": "v2 fHbp mutant #2 (S58V) (other)", "chain": "B1 chain with S32V", "notes": "also called S32V"}, "B5": {"name": "v2 fHbp mutant #3 + 'E313A' (other)", "chain": "B1 chain with S32V, L123R, E240A", "notes": "also called S32V + L123R + E240A"}, "B6": {"name": "v3 fHbp L149R mutant (L126R of SEQ ID NO: 17) (other)", "chain": "VAADIGTGLADALTAPLDHKDKGLKSLTLEDSIPQNGTLTLSAQGAEKTFKAGDKDNSLNTGKLKNDKISRFDFVQKIEVDGQTITLASGEFQIYKQNHSAVVALQIEKINNPDKTDSLINQRSFRVSGLGGEHTAFNQLPGGKAEYHGKAFSSDDPNGRLHYSIDFTKKQGYGRIEHLKTLEQNVELAAAELKADEKSHAVILGDTRYGSEEKGTYHLALFGDRAQEIAGSATVKIGEKVHEIGIAGKQ", "notes": "also called v3 equivalent of mutant #4"}, "B7": {"name": "v3 fHbp S58V mutant (S32V of SEQ ID NO: 17) (other)", "chain": "B6 chain with S32V, R126L", "notes": "also called v3 equivalent of mutant #2"}}, "key": {"human factor H [1]": {"biological_target": "T1, human factor H (human, UniProt P08603 19-1231)", "T1 construct": "Immobilised on the chip in the SPR experiments; also called fH", "T1 sequence (P08603 19-1231 limits assumed)": "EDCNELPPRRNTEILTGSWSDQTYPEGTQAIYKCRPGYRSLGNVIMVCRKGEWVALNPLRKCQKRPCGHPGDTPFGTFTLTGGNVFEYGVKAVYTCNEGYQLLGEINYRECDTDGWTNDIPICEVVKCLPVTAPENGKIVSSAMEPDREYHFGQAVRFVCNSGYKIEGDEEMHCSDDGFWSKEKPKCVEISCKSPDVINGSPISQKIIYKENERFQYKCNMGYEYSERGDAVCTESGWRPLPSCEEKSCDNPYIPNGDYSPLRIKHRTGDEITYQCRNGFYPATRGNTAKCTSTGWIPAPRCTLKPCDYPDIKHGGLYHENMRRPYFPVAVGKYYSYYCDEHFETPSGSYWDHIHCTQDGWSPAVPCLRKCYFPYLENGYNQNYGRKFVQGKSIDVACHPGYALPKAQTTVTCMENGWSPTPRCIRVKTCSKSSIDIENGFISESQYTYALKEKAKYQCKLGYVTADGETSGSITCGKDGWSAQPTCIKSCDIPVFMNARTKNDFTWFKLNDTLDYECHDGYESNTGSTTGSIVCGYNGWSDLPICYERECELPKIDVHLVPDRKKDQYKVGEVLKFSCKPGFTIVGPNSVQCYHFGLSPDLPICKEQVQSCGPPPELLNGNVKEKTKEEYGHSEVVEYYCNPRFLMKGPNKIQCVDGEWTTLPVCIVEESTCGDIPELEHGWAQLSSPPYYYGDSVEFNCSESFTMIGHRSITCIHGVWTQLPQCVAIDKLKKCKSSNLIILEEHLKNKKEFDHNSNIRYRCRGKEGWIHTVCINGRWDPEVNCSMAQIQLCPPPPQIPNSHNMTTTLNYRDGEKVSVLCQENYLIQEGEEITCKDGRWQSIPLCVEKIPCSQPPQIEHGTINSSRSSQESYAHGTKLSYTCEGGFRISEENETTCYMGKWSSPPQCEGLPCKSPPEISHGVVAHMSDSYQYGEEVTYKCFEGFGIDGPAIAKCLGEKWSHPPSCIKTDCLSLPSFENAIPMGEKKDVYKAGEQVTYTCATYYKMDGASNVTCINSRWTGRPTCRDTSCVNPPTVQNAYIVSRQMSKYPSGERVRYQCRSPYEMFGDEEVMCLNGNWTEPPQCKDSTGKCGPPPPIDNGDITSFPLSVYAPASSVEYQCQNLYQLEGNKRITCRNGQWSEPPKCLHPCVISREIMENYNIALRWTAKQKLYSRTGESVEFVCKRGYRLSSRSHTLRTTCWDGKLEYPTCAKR", "assay": "SPR against immobilised fH"}, "human factor H [2]": {"biological_target": "T1, human factor H", "assay": "SPR"}}, "note": "Residue numbers refer to the chain shown, from its start. Names and notes keep the numbering of the source."}
{"binder": "B1", "values": [{"measurement": "binding result", "setting": "human factor H [1]", "result": "binds"}]}
{"binder": "B2", "values": [{"measurement": "fold reduction of the SPR peak value", "setting": "human factor H [2]", "result": "~8", "unit": "fold"}]}
{"binder": "B3", "values": [{"measurement": "binding result", "setting": "human factor H [1]", "result": "binds"}]}
{"binder": "B4", "values": [{"measurement": "binding result", "setting": "human factor H [1]", "result": "binds"}]}
{"binder": "B5", "values": [{"measurement": "binding result", "setting": "human factor H [2]", "result": "no binding"}]}
{"binder": "B6", "values": [{"measurement": "binding result", "setting": "human factor H [2]", "result": "binds"}]}
{"binder": "B7", "values": [{"measurement": "fold reduction of the SPR peak value against wild-type v3", "setting": "human factor H [2]", "result": "~2", "unit": "fold"}]}
